Reference: patent US20240002888A1, “RECOMBINANT MICROORGANISM COMPRISING POLYNUCLEOTIDE ENCODING TARGET PRODUCT BINDING PROTEIN FUSED TO SECRETION SIGNAL SEQUENCE, COMPOSITION COMPRISING SAME, AND METHOD FOR PRODUCING TARGET PRODUCT BY USING SAME” (KOREA RESEARCH INSTITUTE OF CHEMICAL TECHNOLOGY, priority 2020, published 2024)

Experiments:
Format in all cases: cell-based, Saccharomyces cerevisiae
SQ strain [1] = assay: Squalene production and secretion by SQ strains transformed with tSPF fused to a secretion signal sequence (HPLC of cell lysate and dodecane layer); conditions: for Intracellular (mg/L) / Intracellular (mg/g): squalene in cells; for Extracellular: squalene in dodecane layer
Method: The SQ strains transformed with the pSEC-Suc2-tSPF, pSEC-Pho5-tSPF, and pSEC-MFα-tSPF expression vectors were cultured in flask ([…]) containing 50 mL of minimal medium (e.g., YSC medium; 0.67% (w/v) yeast nitrogen base without amino acids (BD Difco, USA), 0.19% (w/v) yeast synthetic drop-out medium supplements without uracil (Sigma-Aldrich, USA)) while stirring at 250 rpm at 30° C.
After culturing for 72 hours and 144 hours, the culture was centrifuged at 4,000 rpm to be separated into cells, a culture supernatant, and a dodecane layer. Then, the concentration of squalene in the separated cells and dodecane layer was measured. To measure the squalene concentration in the cells, the cells were resuspended in 600 μL of a mixed solution containing methanol and acetone at 1:1, transferred to a tube containing lysing matrix C (glass bead, MP Biomedicals, USA), and then underwent cell lysis by using a FastPrep-24 5G homogenizer (MP Biomedicals, USA). By centrifugation at 13,000 rpm, the lysed cells and intracellular metabolites including squalene dissolved from the lysed cells were separated.
Next, the squalene concentration in the cell lysate was measured. To measure the squalene concentration in the cell lysate, the concentration was measured by using an Agilent HPLC system after filtering the cell lysate through a 0.2 μm syringe filter.
In addition, the dodecane layer separated by centrifugation was also filtered in the same way, and then the squalene concentration was measured by using an HPLC system. […] FIGS. 2A and 2B show the squalene concentrations outside the cells or in the cells, wherein the cells were produced by yeast cells including the polynucleotide encoding tSPF fused to the secretion signal sequence.

CEN.PK2-1D yeast cells = assay: Beta-carotene production and secretion by CEN.PK2-1D yeast cells co-transformed with p415-BC and pSEC-tSPF or pSEC-Suc2-tSPF; conditions: for Intracellular (mg/L) / Intracellular (mg/g): beta-carotene in cells; for Extracellular: beta-carotene in dodecane layer
Source text: Through the same process as described in Section (1.2) of Example 1, the S. cerevisiae wild strain CEN.PK2-1D was co-transformed with the p415-BC vector manufactured in Section (1.2) and either pSEC-tSPF or pSEC-Suc2-tSPF, to manufacture yeast cells transformed with a vector expressing tSPF fused to a signal peptide.
CEN.PK2-1D yeast cells, which were co-transformed with the p415-BC vector obtained in Section (2.2) and either pSEC-tSPF or pSEC-Suc2-tSPF and were able to overproduce beta-carotene, were cultured for 144 hours under the same conditions as described in Section (1.3) of Example 1. Then, the amount of beta-carotene in the cultured cells and outside the cells was measured. The amount of beta-carotene was measured in the same method as the methods for cell lysis and dodecane layer separation used for the measurement of the squalene concentration. Table 2 and FIG. 6 show the amount of beta-carotene produced by culturing the CEN.PK2-1D yeast cells co-transformed with the p415-BC vector and either pSEC-tSPF or pSEC-Suc2-tSPF.

SQ strain [2] = assay: Western blot analysis of cell lysates and culture supernatant of transformed SQ strains (anti-His tag); conditions: medium without dodecane layer
Method: FIG. 4 is a diagram showing the results of western blot analysis of the cell lysates and the culture supernatant obtained after culturing the SQ strains that were each transformed with the Suc2-tSPF, Pho5-tSPF and MFα-tSPF fusion protein genes. To confirm the extracellular secretion of the tSPF fusion protein, yeast cells were cultured in a flask ([…]) containing 50 mL minimal medium (e.g., YSC medium; 0.67% (w/v) yeast nitrogen base without amino acids (BD Difco, USA), 0.19% (w/v) yeast synthetic drop-out medium supplements without uracil (Sigma-Aldrich, USA)) supplemented with 2% (w/v) glucose while stirring at 30° C. […] To extract intracellular proteins from the cultured yeast cells in an amount corresponding to an OD600 value of 100, the cells were resuspended 1 mL of cell lysis buffer (1 mL RIPA buffer, Thermo Scientific, MA, USA) containing protease inhibitor (1× protease inhibitor cocktail, Roche Diagnostics, Mannheim, Germany). The suspension was homogenized by using a sonicator, for 6 minutes at 20% amplitude and 3 second intervals. The extracellular proteins in the supernatant of the culture medium were added to a solution in which trichloroacetic acid solution was added to 50 mL of the supernatant to account for 25%, and incubated for 30 minutes to precipitate proteins, followed by centrifugation at 4° C. for 40 minutes. The precipitated proteins were washed three times with 1 ml of cold acetone, and then resuspended in 50 μl of sterile water. The resuspended proteins were further concentrated by using 30 kDa am icon ultra centrifugal filters.
The protein samples thus prepared, i.e. the cell lysates, were mixed with 5×SDS sample buffer and separated by 10% SDS-PAGE. The proteins separated on the SDS-PAGE gel were transferred to a PVDF membrane, and blocked by incubation for one day in TBST containing 4% skim milk. The PVDF membrane was reacted with a solution containing primary antibodies at room temperature for 1 hour, and then washed with a TBST solution three times. As the primary antibody, an anti-actin antibody or an anti-His tag antibody was used. The fusion protein included a 6×His tag sequence at the C-terminus. The washed PVDF membrane was reacted again in a solution containing peroxidase-conjugated anti-IgG antibodies at room temperature for 1 hour. The PVDF membrane in which the antibody-conjugated proteins were present was visualized by using the ChemiDoc imaging system.

B1: tSPF: truncated supernatant protein factor, amino acids 1 to 275 of SPF (SEQ ID NO: 2), without secretion signal; control expressed from pSEC-tSPF (protein)
chain: MSGRVGDLSPRQKEALAKFRENVQDVLPALPNPDDYFLLRWLRARSFDLQKSEAMLRKHVEFRKQKDIDNIISWQPPEVIQQYLSGGMCGYDLDGCPVWYDIIGPLDAKGLLFSASKQDLLRTKMRECELLLQECAHQTTKLGRKVETITIIYDCEGLGLKHLWKPAVEAYGEFLCMFEENYPETLKRLFVVKAPKLFPVAYNLIKPFLSEDTRKKIMVLGANWKEVLLKHISPDQVPVEYGGTMTDPDGNPKCKSKINYGGDIPRKYYVRDQVK
modifications: truncated SPF
Intracellular (mg/L) (SQ strain [1]; 72 hours): 401.51 mg/L | Intracellular (mg/g) (SQ strain [1]; 72 hours): 55.05 mg/g | Intracellular (mg/L) (SQ strain [1]; 144 hours): 485.04 mg/L | Intracellular (mg/g) (SQ strain [1]; 144 hours): 59.43 mg/g | Extracellular (SQ strain [1]; 72 hours): 3.67 mg/L | Extracellular (SQ strain [1]; 144 hours): 13.82 mg/L | Intracellular (mg/L) (CEN.PK2-1D yeast cells; 144 hours): 7.04 mg/L | Intracellular (mg/g) (CEN.PK2-1D yeast cells; 144 hours): 0.69 mg/g | Extracellular (CEN.PK2-1D yeast cells; 144 hours): 0.23 mg/L | western blot band in cell lysate (SQ strain [2]): apparent band | western blot band in culture supernatant (SQ strain [2]; culture supernatant): did not appear

B2: Suc2-tSPF: fusion protein of Suc2 signal peptide at N-terminus of tSPF (SEQ ID NO: 23), expressed in yeast from pSEC-Suc2-tSPF (protein)
chain: MLLQAFLFLLAGFAAKISAMEFSGRVGDLSPRQKEALAKFRENVQDVLPALPNPDDYFLLRWLRARSFDLQKSEAMLRKHVEFRKQKDIDNIISWQPPEVIQQYLSGGMCGYDLDGCPVWYDIIGPLDAKGLLFSASKQDLLRTKMRECELLLQECAHQTTKLGRKVETITAIYDCEGLGLKHLWKPAVEAYGEALCMFEENYPETLKRLFVVKAPKLFPVAYNLIKPFLSEDTRKKIMVLGANWKEVLLKHISPDQVPVEYGGTMTDPDGNPKCKSKINYGGDIPRKYYVRDQVK
modifications: Suc2-tSPF
amount of extracellular squalene or extracellular squalene secretion ratio compared to the control cells (SQ strain [1]): significant increase | Intracellular (mg/L) (SQ strain [1]; 72 hours): 476.9 mg/L | Intracellular (mg/g) (SQ strain [1]; 72 hours): 89.61 mg/g | Intracellular (mg/L) (SQ strain [1]; 144 hours): 557.03 mg/L | Intracellular (mg/g) (SQ strain [1]; 144 hours): 97.93 mg/g | Extracellular (SQ strain [1]; 72 hours): 166.62 mg/L | Extracellular (SQ strain [1]; 144 hours): 226.51 mg/L | amount of extracellular beta-carotene or ratio of extracellular secretion compared to control cells (CEN.PK2-1D yeast cells): significantly increased | extracellular secretion of beta-carotene, increase compared to the control groups containing the empty vector (CEN.PK2-1D yeast cells; 144 hours): about 23 fold | Intracellular (mg/L) (CEN.PK2-1D yeast cells; 144 hours): 7.65 mg/L | Intracellular (mg/g) (CEN.PK2-1D yeast cells; 144 hours): 0.82 mg/g | Extracellular (CEN.PK2-1D yeast cells; 144 hours): 1.4 mg/L | western blot band in cell lysate (SQ strain [2]): hardly appeared

B3: Pho5-tSPF: fusion protein of Pho5 signal peptide at N-terminus of tSPF (SEQ ID NO: 24), expressed in yeast from pSEC-Pho5-tSPF (protein)
chain: MFKSVVYSILAASLANAMEFSGRVGDLSPRQKEALAKFRENVQDVLPALPNPDDYFLLRWLRARSFDLQKSEAMLRKHVEFRKQKDIDNIISWQPPEVIQQYLSGGMCGYDLDGCPVWYDIIGPLDAKGLLFSASKQDLLRTKMRECELLLQECAHQTTKLGRKVETITAIYDCEGLGLKHLWKPAVEAYGEALCMFEENYPETLKRLFVVKAPKLFPVAYNLIKPFLSEDTRKKIMVLGANWKEVLLKHISPDQVPVEYGGTMTDPDGNPKCKSKINYGGDIPRKYYVRDQVK
modifications: Pho5-SPF
amount of extracellular squalene or extracellular squalene secretion ratio compared to the control cells (SQ strain [1]): significant increase | Intracellular (mg/L) (SQ strain [1]; 72 hours): 252.17 mg/L | Intracellular (mg/g) (SQ strain [1]; 72 hours): 51.68 mg/g | Intracellular (mg/L) (SQ strain [1]; 144 hours): 426.85 mg/L | Intracellular (mg/g) (SQ strain [1]; 144 hours): 72.39 mg/g | Extracellular (SQ strain [1]; 72 hours): 64.55 mg/L | Extracellular (SQ strain [1]; 144 hours): 190.09 mg/L | western blot band in cell lysate (SQ strain [2]): hardly appeared

B4: MFα-tSPF: fusion protein of MFα signal peptide at N-terminus of tSPF (SEQ ID NO: 25), expressed in yeast from pSEC-MFα-tSPF (protein)
chain: MRFPSIFTAVLFAASSALAAPVNTTTEDETAQIPAEAVIGYSDLEGDFDVAVLPFSNSTNNGLLFINTTIASIAAKEEGVSLEKREAEAMEFSGRVGDLSPRQKEALAKFRENVQDVLPALPNPDDYFLLRWLRARSFDLQKSEAMLRKHVEFRKQKDIDNIISWQPPEVIQQYLSGGMCGYDLDGCPVWYDIIGPLDAKGLLFSASKQDLLRTKMRECELLLQECAHQTTKLGRKVETITAIYDCEGLGLKHLWKPAVEAYGEALCMFEENYPETLKRLFVVKAPKLFPVAYNLIKPFLSEDTRKKIMVLGANWKEVLLKHISPDQVPVEYGGTMTDPDGNPKCKSKINYGGDIPRKYYVRDQVK
modifications: MF-tSPF
amount of extracellular squalene or extracellular squalene secretion ratio compared to the control cells (SQ strain [1]): significant increase | Intracellular (mg/L) (SQ strain [1]; 72 hours): 210.52 mg/L | Intracellular (mg/g) (SQ strain [1]; 72 hours): 44.88 mg/g | Intracellular (mg/L) (SQ strain [1]; 144 hours): 551.64 mg/L | Intracellular (mg/g) (SQ strain [1]; 144 hours): 78.42 mg/g | Extracellular (SQ strain [1]; 72 hours): 4.21 mg/L | Extracellular (SQ strain [1]; 144 hours): 43.25 mg/L
